Numbered stars: 1 amine (or outer) side, 2 acyl side, 3 side chain; on linkers, the order of the positions; unused ones are H or OH. Bridge positions count the residues as written; N and C are the ends. Square brackets hold non-standard residues; d marks the D form. Ends that are not written are not given here. Peptide text beside a SMILES is read from it. * marks the point of attachment. PR3 = (R)-N-(acetyl)-2-(2'-propenyl)proline, C=CC[C@@]1(C(=O)*)CCCN1C(C)=O; S3 = α-methyl,α-allylglycine, C=CC[C@](C)(N[*:1])C(=O)[*:2]; X1 = O=C([C@]1(CCCC=[*:3])CCCN1[*:1])[*:2]; X2 = O=C([C@]1(CC=[*:3])CCCN1[*:1])[*:2]; X3 = C[C@@](CC=[*:3])(N[*:1])C(=O)[*:2]; S8 = C=CCCCCCC[C@](C)(N)C(=O)O; R5 = C=CCCC[C@@](C)(N)C(=O)O; S5 = C=CCCC[C@](C)(N)C(=O)O
Test: Variable temperature CD measurement of α-helix stability
Assay type: physicochemical
Conditions: 20° C. to 90° C.; 50 mM sodium phosphate buffer (pH 8.0), alone and with 100 mM NaCl, 1 M NaCl, and 10% TFE
Description: These observations indicate that the proline stapled peptides adopt an α-helix conformation with extraordinary stability.

| Compound | α-helix conformation on heating |
| --- | --- |
| peptide 2: Pro-locked peptide with partial basic region of GCN4, crosslink between PR3 and S3; Peptide "4)" of FIG. 17 (SEQ ID NO:2) ([PR3]AA[S3]KRARNTEAAW; staple 1-4; also: olefin Z-isomer) | completely maintained |

Test: CD measurements of peptide conformation and % helicity
Assay type: physicochemical
Conditions: 20° C.
Description: The conformation of peptide 1 and 2 was investigated by CD measurements (FIG. 4).
(Peptide 1 of FIG. 2 corresponds to Peptide “1)” of FIG. 17, while Peptide 2 of FIG. 2 corresponds to Peptide “4)” of FIG. 17).

| Compound | % helicity [%] | conformation by CD |
| --- | --- | --- |
| peptide 2: Pro-locked peptide with partial basic region of GCN4, crosslink between PR3 and S3; Peptide "4)" of FIG. 17 (SEQ ID NO:2) ([PR3]AA[S3]KRARNTEAAW; staple 1-4; also: olefin Z-isomer) | 67 | (X-helix |

Test: circular dichroism
Conditions: 50 mM sodium phosphate (stated for FIG. 5; assumed for the rest); pH 8.0; 20 °C

| Compound | helicity [%] |
| --- | --- |
| CC(=O)N1CCC[C@]12C/C=C\C[C@@](C)(C(=O)N[C@@H](CCCCN)C(=O)N[C@@H](CCCNC(=N)N)C(=O)N[C@@H](C)C(=O)N[C@@H](CCCNC(=N)N)C(=O)N[C@@H](CC(N)=O)C(=O)N[C@H](C(=O)N[C@@H](CCC(=O)O)C(=O)N[C@@H](C)C(=O)N[C@@H](C)C(=O)N[C@@H](Cc1c[nH]c3ccccc13)C(N)=O)[C@@H](C)O)NC(=O)[C@H](C)NC(=O)[C@H](C)NC2=O (Ac-[X2]AA[X3]KRARNTEAAW-NH2; staple (Z) 1-4) | 66 |
| CC(=O)N1CCC[C@]12C/C=C\CCC[C@@](C)(C(=O)N[C@@H](CCCCN)C(=O)N[C@@H](CCCNC(=N)N)C(=O)N[C@@H](C)C(=O)N[C@@H](CCCNC(=N)N)C(=O)N[C@@H](CC(N)=O)C(=O)N[C@H](C(=O)N[C@@H](CCC(=O)O)C(=O)N[C@@H](C)C(=O)N[C@@H](C)C(=O)N[C@@H](Cc1c[nH]c3ccccc13)C(N)=O)[C@@H](C)O)NC(=O)[C@H](C)NC(=O)[C@H](C)NC2=O (Ac-[X2]AA[S5]KRARNTEAAW-NH2; staple (Z) 1-4) | 44 |

Same assay, conditions: 50 mM sodium phosphate (stated for FIG. 5; assumed for the rest); pH 8.0; ns °C

| Compound | helicity [%] |
| --- | --- |
| CC(=O)N1CCC[C@]12CC=CCCCC1(CCCC=CCCCCCC[C@@](C)(C(=O)N[C@@H](C)C(=O)N[C@@H](C)C(=O)N[C@@H](Cc3c[nH]c4ccccc34)C(N)=O)NC(=O)[C@H]([C@@H](C)O)NC(=O)[C@H](CC(N)=O)NC(=O)[C@H](CCCNC(=N)N)NC(=O)[C@H](C)NC(=O)[C@H](CCCNC(=N)N)NC(=O)[C@H](CCCCN)NC1=O)NC(=O)[C@H](C)NC(=O)[C@H](C)NC2=O (stereo partly drawn) | 81 |
| CC(=O)N1CCC[C@]12CC=CC[C@@](C)(C(=O)N[C@@H](CCCCN)C(=O)N[C@@H](CCCNC(=N)N)C(=O)N[C@@H](C)C(=O)N[C@@H](CCCNC(=N)N)C(=O)N[C@@H](CC(N)=O)C(=O)N[C@H](C(=O)N[C@@H](CCC(=O)O)C(=O)N[C@]1(C)CCC=CCCNC(=O)[C@H](Cc3c[nH]c4ccccc34)NC(=O)[C@H](C)NC1=O)[C@@H](C)O)NC(=O)[C@H](C)NC(=O)[C@H](C)NC2=O | 80 |
| CC(=O)N1CCC[C@]12CCCC=CCCCCCC[C@@](C)(C(=O)N[C@@H](CC(N)=O)C(=O)N[C@H](C(=O)N[C@@H](CCC(=O)O)C(=O)N[C@@H](C)C(=O)N[C@@H](C)C(=O)N[C@@H](Cc1c[nH]c3ccccc13)C(N)=O)[C@@H](C)O)NC(=O)[C@H](C)NC(=O)[C@H](CCCNC(=N)N)NC(=O)[C@H](CCCCN)NC(=O)[C@H](CC(C)C)NC(=O)[C@H](C)NC(=O)[C@H](C)NC2=O (Ac-[X1]AALKRA[S8]NTEAAW-NH2; staple 1-8) | 61 |
| CC(=O)N[C@]1(C)CCCC=CCCCCCC[C@@](C)(C(=O)N[C@@H](CC(N)=O)C(=O)N[C@H](C(=O)N[C@@H](CCC(=O)O)C(=O)N[C@@H](C)C(=O)N[C@@H](C)C(=O)N[C@@H](Cc2c[nH]c3ccccc23)C(N)=O)[C@@H](C)O)NC(=O)[C@H](C)NC(=O)[C@H](CCCNC(=N)N)NC(=O)[C@H](CCCCN)NC(=O)[C@H](CC(C)C)NC(=O)[C@H](C)NC(=O)[C@H](C)NC1=O (Ac-[R5]AALKRA[S8]NTEAAW-NH2; staple 1-8) | 48 |
| CC(=O)N1CCC[C@]12CC=CC[C@@](C)(C(=O)N[C@@H](CCCCN)C(=O)N[C@@H](CCCNC(=N)N)C(=O)N[C@@H](C)C(=O)N[C@@H](CCCNC(=N)N)C(=O)N[C@@H](CC(N)=O)C(=O)N[C@H](C(=O)N[C@@H](CCC(=O)O)C(=O)N[C@]1(C)CC=CCNC(=O)[C@H](Cc3c[nH]c4ccccc34)NC(=O)[C@H](C)NC1=O)[C@@H](C)O)NC(=O)[C@H](C)NC(=O)[C@H](C)NC2=O | 64 |
| CC(=O)N1CCC[C@]12CC=CCCCC1(CCCC=CCCC[C@](C)(C(=O)N[C@@H](CC(N)=O)C(=O)N[C@H](C(=O)N[C@@H](CCC(=O)O)C(=O)N[C@@H](C)C(=O)N[C@@H](C)C(=O)N[C@@H](Cc3c[nH]c4ccccc34)C(N)=O)[C@@H](C)O)NC(=O)[C@H](C)NC(=O)[C@H](CCCNC(=N)N)NC(=O)[C@H](CCCCN)NC1=O)NC(=O)[C@H](C)NC(=O)[C@H](C)NC2=O (stereo partly drawn) | 47 |
| CC(=O)N1CCC[C@]12CC=CC[C@@](C)(C(=O)N[C@@H](CCCCN)C(=O)N[C@@H](CCCNC(=N)N)C(=O)N[C@@H](C)C(=O)N[C@@H](CCCNC(=N)N)C(=O)N[C@@H](CC(N)=O)C(=O)N[C@H](C(=O)N[C@@H](CCC(=O)O)C(=O)N[C@]1(C)CC=CCCNC(=O)[C@H](Cc3c[nH]c4ccccc34)NC(=O)[C@H](C)NC1=O)[C@@H](C)O)NC(=O)[C@H](C)NC(=O)[C@H](C)NC2=O | 64 |
| CC(=O)N1CCC[C@]12CC=CC[C@@](C)(C(=O)N[C@@H](CCCCN)C(=O)N[C@@H](CCCNC(=N)N)C(=O)N[C@@H](C)C(=O)N[C@@H](CCCNC(=N)N)C(=O)N[C@@H](CC(N)=O)C(=O)N[C@H](C(=O)N[C@@H](CCC(=O)O)C(=O)N[C@]1(C)CCC=CCNC(=O)[C@H](Cc3c[nH]c4ccccc34)NC(=O)[C@H](C)NC1=O)[C@@H](C)O)NC(=O)[C@H](C)NC(=O)[C@H](C)NC2=O | 69 |
| CC(=O)N1CCC[C@]12CC=CC[C@@](C)(C(=O)N[C@@H](C)C(=O)N[C@@H](C)C(=O)N[C@@H](C)C(=O)N[C@@H](Cc1c[nH]c3ccccc13)C(N)=O)NC(=O)[C@H](C)NC(=O)[C@H](C)NC2=O (Ac-[X2]AA[X3]AAAW-NH2; staple 1-4) | 70 |
| CC(=O)N1CCC[C@]12CC=CC[C@@](C)(C(=O)N[C@@H](CCCCN)C(=O)N[C@@H](CCCNC(=N)N)C(=O)N[C@@H](C)C(=O)N[C@@H](CCCNC(=N)N)C(=O)N[C@@H](CC(N)=O)C(=O)N[C@H](C(=O)N[C@@H](CCC(=O)O)C(=O)N[C@]1(C)CCCC=CCNC(=O)[C@H](Cc3c[nH]c4ccccc34)NC(=O)[C@H](C)NC1=O)[C@@H](C)O)NC(=O)[C@H](C)NC(=O)[C@H](C)NC2=O | 73 |

Reference: patent US9617309B2, “Proline-locked stapled peptides and uses thereof” (President and Fellows of Harvard College, priority 2012, dated 2017)
